{"source": "patent US20210395725A1", "about": "(EVERCYTE, published 2021)", "key": {"[1]": {"biological_target": "T1, human Her2/neu-Fc (human, UniProt P04626 23-652, biotinylated with EZ-Link Sulfo-NHS-LC-LC-Biotin)", "T1 construct": "Bought; also called Human Her2/neu-Fc-biotin; biotinylated human Her2/neu-Fc", "test": "HEK293-6E cell display flow cytometry; 500 nM biotinylated antigen + streptavidin-Alexa Fluor 647; secondary only 14.11", "description": "(§1) 1×10⁵ cells have been blocked in 2% BSA-PBS for 30 min on ice and then stained with each 500 nM biotinylated human EGFR-Fc, biotinylated human Her2/neu-Fc and biotinylated mouse EGFR-Fc for 30 min on ice in 2% BSA-PBS. […] Cells were then centrifuged at 300 g, 5 min at 4° C. and re-suspended in 200 μl ice-cold PBS. […] The fluorescence has been determined with Guava EasyCyte flow cytometer."}, "[2]": {"biological_target": "T2, human EGFR-Fc (human, UniProt P00533 25-645, biotinylated with EZ-Link Sulfo-NHS-LC-LC-Biotin in most assays)", "T2 construct": "Bought; also called Human EGFR-Fc-biotin; EGFR-Fc-biotin", "test": "HEK293-6E cell display flow cytometry; 500 nM biotinylated antigen + streptavidin-Alexa Fluor 647; secondary only 14.11", "description": "as §1"}, "[3]": {"biological_target": "T3, mouse EGFR-Fc (mouse, UniProt Q01279 25-647, limits assumed, biotinylated with EZ-Link Sulfo-NHS-LC-LC-Biotin)", "T3 construct": "Bought; also called Mouse EGFR-Fc-biotin; biotinylated mouse EGFR-Fc", "test": "HEK293-6E cell display flow cytometry; 500 nM biotinylated antigen + streptavidin-Alexa Fluor 647; secondary only 14.11", "description": "as §1"}, "[4]": {"biological_target": "T1, human Her2/neu-Fc", "test": "HEK293-6E cell display flow cytometry; 500 nM biotinylated antigen + streptavidin-Alexa Fluor 647; secondary only 14.11 (same values as in Table 12)", "description": "as §1"}, "[5]": {"biological_target": "T2, human EGFR-Fc", "test": "HEK293-6E cell display flow cytometry; 500 nM biotinylated antigen + streptavidin-Alexa Fluor 647; secondary only 14.11 (same values as in Table 12)", "description": "as §1"}, "[6]": {"biological_target": "T3, mouse EGFR-Fc", "test": "HEK293-6E cell display flow cytometry; 500 nM biotinylated antigen + streptavidin-Alexa Fluor 647; secondary only 14.11 (same values as in Table 12)", "description": "as §1"}, "[7]": {"biological_target": "T3, mouse EGFR-Fc", "test": "yeast display flow cytometry; mouse EGFR-Fc + streptavidin-Alexafluor 647"}, "[8]": {"biological_target": "T1, human Her2/neu-Fc", "test": "flow cytometry, HEK293-6E cell display (pDisplay)", "description": "(§2) 1×10⁵ cells have been blocked in 2% BSA-PBS for 30 min on ice and then stained with each 500 nM biotinylated human EGFR-Fc, biotinylated human Her2/neu-Fc and biotinylated mouse EGFR-Fc for 30 min on ice in 2% BSA-PBS. […] Cells were then centrifuged at 300 g, 5 min at 4° C. and resuspended in 200 μl ice-cold PBS. […] The fluorescence has been determined with Guava EasyCyte flow cytometer.\nas §1"}, "[9]": {"biological_target": "T1, human Her2/neu-Fc", "test": "HEK293-6E cell display flow cytometry; 500 nM biotinylated antigen + streptavidin-Alexa Fluor 647; secondary only 5.82", "description": "as §2"}, "[10]": {"biological_target": "T2, human EGFR-Fc", "test": "HEK293-6E cell display flow cytometry; 500 nM biotinylated antigen + streptavidin-Alexa Fluor 647; secondary only 5.82", "description": "as §2"}, "[11]": {"biological_target": "T3, mouse EGFR-Fc", "test": "HEK293-6E cell display flow cytometry; 500 nM biotinylated antigen + streptavidin-Alexa Fluor 647; secondary only 5.82", "description": "as §2"}, "[12]": {"biological_target": "T4, human placental laminin (human)", "T4 construct": "Bought; also called human laminin; laminin-biotin", "test": "ELISA; biotinylated laminin 5 µg/ml on streptavidin plate, neat eluted His-tagged protein, anti-pentaHis-HRP", "description": "Neat eluted proteins were tested for binding to their cognate antigen and BSA as a control antigen. Streptavidin-activated plates (Immobilizer, NUNC) were coated with biotinylated laminin at 5 μg/ml in PBS for 30 min at RT and blocked with 4% BSA-PBS for 1 h at RT. Eluted proteins were added in 2% BSA-PBS and allowed to bind for 1 h at RT. […] The reaction was stopped with the addition of H₂SO₄ and the absorbance read at 450/620 nm (Table 15)."}, "[13]": {"biological_target": "T1, human Her2/neu-Fc", "test": "HEK293-6E cell display flow cytometry; 500 nM biotinylated antigen + streptavidin-Alexa Fluor 647; secondary only 2.67", "description": "as §1"}, "[14]": {"biological_target": "T2, human EGFR-Fc", "test": "HEK293-6E cell display flow cytometry; 500 nM biotinylated antigen + streptavidin-Alexa Fluor 647; secondary only 2.67", "description": "as §1"}, "[15]": {"biological_target": "T3, mouse EGFR-Fc", "test": "HEK293-6E cell display flow cytometry; 500 nM biotinylated antigen + streptavidin-Alexa Fluor 647; secondary only 2.67", "description": "as §1"}, "[16]": {"biological_target": "T2, human EGFR-Fc", "test": "flow cytometry, HEK293-6E cell display (pDisplay)", "description": "as §2, §1"}, "[17]": {"biological_target": "T3, mouse EGFR-Fc", "test": "flow cytometry, HEK293-6E cell display (pDisplay)", "description": "as §2, §1"}, "[18]": {"biological_target": "T5, streptavidin-Alexafluor 647 (UniProt P22629 37-163, limits assumed, Alexa Fluor 647 conjugate)", "T5 construct": "Secondary detection reagent, tested alone as a control; also called secondary reagent; 2nd", "T5 sequence (P22629 37-163 limits assumed)": "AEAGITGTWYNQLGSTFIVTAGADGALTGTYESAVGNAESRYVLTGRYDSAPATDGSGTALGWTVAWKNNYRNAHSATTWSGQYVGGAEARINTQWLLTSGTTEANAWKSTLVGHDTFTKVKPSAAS", "test": "yeast display flow cytometry, secondary reagent only"}, "[19]": {"biological_target": "T5, streptavidin-Alexafluor 647", "test": "yeast display flow cytometry; secondary reagent only"}, "[20]": {"biological_target": "T3, mouse EGFR-Fc", "test": "yeast display flow cytometry, clone 9"}}}
{"binder": "wild-type human CD81 LEL (other, the formats are named in the assay field; The soluble form runs as a dimer in SEC; also called wild-type CD81 LEL; hCD81 LEL) FVNKDQIAKDVKQFYDQALQQAVVDDDANNAKAVVKTFHETLDCCGSSTLTALTTSVLKNNLCPSGSNIISNLFKEDCHQKIDDLFSGK", "values": [{"measurement": "% antigen binding cells", "setting": "[1]", "value": 10.5, "unit": "%"}, {"measurement": "% antigen binding cells", "setting": "[2]", "value": 10.4, "unit": "%"}, {"measurement": "% antigen binding cells", "setting": "[3]", "value": 12.8, "unit": "%"}, {"measurement": "% antigen binding cells", "setting": "[4]", "value": 10.5, "unit": "%"}, {"measurement": "% antigen binding cells", "setting": "[5]", "value": 10.4, "unit": "%"}, {"measurement": "% antigen binding cells", "setting": "[6]", "value": 12.8, "unit": "%"}, {"measurement": "median fluorescence", "setting": "[7]", "value": 9.1}]}
{"binder": "EGFR-specific CD81 LEL binder L2B_EU1_1 (designed binder, also called L2BE1_1) FVNKDQIAKDVKQFYDQALWWCCVLYKANNACAVVKTFHETLDCCGSSTGRSHTACVLKGNLCPSGSNIISNLFKEDCHQKIDDLFSGK", "values": [{"measurement": "binding result", "setting": "[8]", "value": "no binding (tested: 500 nM)"}, {"measurement": "% antigen binding cells", "setting": "[9]", "value": 8.17, "unit": "%"}, {"measurement": "% antigen binding cells", "setting": "[10]", "value": 71.1, "unit": "%"}, {"measurement": "% antigen binding cells", "setting": "[11]", "value": 89.3, "unit": "%"}]}
{"binder": "laminin-binding CD81 LEL mutant L2A_LU1 (designed binder) FVNKDQIAKDVKQFYDQALRECCNTFDANNACAVVKTFHETLDCCGSSTTHSSTGCVLFFNLCPSGSNIISNLFKEDCHQKIDDLFSGK", "values": [{"measurement": "A450/620 (average)", "setting": "[12]", "value": 0.156}]}
{"binder": "laminin-binding CD81 LEL mutant L3A_LU1 (designed binder) FVNKDQIAKDVKQFYDQCLLWACSKRYKYNAKACVKTFHETLDCCGSSTMGNLTECVLIENLCPSGSNIISNLFKEDCHQKIDDLFSGK", "values": [{"measurement": "A450/620 (average)", "setting": "[12]", "value": 1.7}]}
{"binder": "laminin-binding CD81 LEL mutant L3B_LU1_2 (designed binder) FVNKDQIAKDVKQFYDQCLKYACKQGDWENAKACVKTFHETLDCCGSSTVANMTRCVLPANLCPSGSNIISNLFKEDCHQKIDDLFSGK", "values": [{"measurement": "A450/620 (average)", "setting": "[12]", "value": 1.32}]}
{"binder": "anti-Her2/neu directed CD81 LEL clone 81_H2_11 (designed binder, also called anti-Her2/neu clone) FVNKDQIAKDVKQFYDQALVNCCYTRAANNACAVVKTFHETLDCCGSSTHYVDTHCVLNRNLCPSGSNIISNLFKEDCHQKIDDLFSGK", "values": [{"measurement": "% antigen binding cells", "setting": "[13]", "value": 44.2, "unit": "%"}, {"measurement": "% antigen binding cells", "setting": "[14]", "value": 5.16, "unit": "%"}, {"measurement": "% antigen binding cells", "setting": "[15]", "value": 5.68, "unit": "%"}, {"measurement": "binding result", "setting": "[16]", "value": "no binding (tested: 500 nM)"}, {"measurement": "binding result", "setting": "[17]", "value": "no binding (tested: 500 nM)"}]}
{"binder": "CD81 LEL library 1 variant RAN / IWRARRRRS (yeast clones 3, 13, 21 of the mouse EGFR-Fc selection) (designed binder, also called clone 3; clone 13) FVNKDQIAKDVKQFYDQALQQAVVDDDANNAKAVVKTFHETLDCCGSRANTALTTSVLKNNLCPSGSNIWRARRRRSCHQKIDDLFSGK", "values": [{"measurement": "binding result", "setting": "[18]", "value": "no binding"}]}
{"binder": "CD81 LEL library 1 variant MGN / WWGRRFRVS (yeast clone 9 of the mouse EGFR-Fc selection) (designed binder) FVNKDQIAKDVKQFYDQALQQAVVDDDANNAKAVVKTFHETLDCCGSMGNTALTTSVLKNNLCPSGSNWWGRRFRVSCHQKIDDLFSGK", "values": [{"measurement": "median fluorescence", "setting": "[19]", "value": 14.6}, {"measurement": "median fluorescence", "setting": "[7]", "value": 11.8}, {"measurement": "binding result", "setting": "[20]", "value": "no binding"}]}
{"binder": "CD81 LEL library 1 variant VRR / RRPRKRTRS (yeast clones 1, 8, 15 of the mouse EGFR-Fc selection) (designed binder, also called clone 1; clone 8) FVNKDQIAKDVKQFYDQALQQAVVDDDANNAKAVVKTFHETLDCCGSVRRTALTTSVLKNNLCPSGSNRRPRKRTRSCHQKIDDLFSGK", "values": [{"measurement": "binding result", "setting": "[18]", "value": "no binding"}]}
{"binder": "CD81 LEL library 1 variant ERL / RRSRRRVHD (yeast clones 2, 4, 7, 10, 11, 12, 14, 16, 17, 20, 22, 23 of the mouse EGFR-Fc selection) (designed binder, also called clone 2; clone 4) FVNKDQIAKDVKQFYDQALQQAVVDDDANNAKAVVKTFHETLDCCGSERLTALTTSVLKNNLCPSGSNRRSRRRVHDCHQKIDDLFSGK", "values": [{"measurement": "binding result", "setting": "[18]", "value": "no binding"}]}
{"binder": "CD81 LEL library 1 variant SFS / RRFRKRPGD (yeast clones 5, 19 of the mouse EGFR-Fc selection) (designed binder, also called clone 5; clone 19) FVNKDQIAKDVKQFYDQALQQAVVDDDANNAKAVVKTFHETLDCCGSSFSTALTTSVLKNNLCPSGSNRRFRKRPGDCHQKIDDLFSGK", "values": [{"measurement": "binding result", "setting": "[18]", "value": "no binding"}]}
{"binder": "CD81 LEL library 1 variant SSS / SRRWRHRIA (yeast clones 6, 18 of the mouse EGFR-Fc selection) (designed binder, also called clone 6; clone 18) FVNKDQIAKDVKQFYDQALQQAVVDDDANNAKAVVKTFHETLDCCGSSSSTALTTSVLKNNLCPSGSNSRRWRHRIACHQKIDDLFSGK", "values": [{"measurement": "binding result", "setting": "[18]", "value": "no binding"}]}
